Measurements as given in patent US20050064384A1, “Recruitment of mst1 or mst2 protein kinase to induce apoptosis in eukaryotic cells” (priority 2001, published 2005).

Molecular target: FLAG-tagged wild type (wt) MST1 (mouse) (UniProt Q9JI11)
Assay: cell-based or functional assay

Chain of FLAG-tagged wild type (wt) MST1 (mouse) (Q9JI11 other isoform, or with tags, fused parts or gaps limits assumed): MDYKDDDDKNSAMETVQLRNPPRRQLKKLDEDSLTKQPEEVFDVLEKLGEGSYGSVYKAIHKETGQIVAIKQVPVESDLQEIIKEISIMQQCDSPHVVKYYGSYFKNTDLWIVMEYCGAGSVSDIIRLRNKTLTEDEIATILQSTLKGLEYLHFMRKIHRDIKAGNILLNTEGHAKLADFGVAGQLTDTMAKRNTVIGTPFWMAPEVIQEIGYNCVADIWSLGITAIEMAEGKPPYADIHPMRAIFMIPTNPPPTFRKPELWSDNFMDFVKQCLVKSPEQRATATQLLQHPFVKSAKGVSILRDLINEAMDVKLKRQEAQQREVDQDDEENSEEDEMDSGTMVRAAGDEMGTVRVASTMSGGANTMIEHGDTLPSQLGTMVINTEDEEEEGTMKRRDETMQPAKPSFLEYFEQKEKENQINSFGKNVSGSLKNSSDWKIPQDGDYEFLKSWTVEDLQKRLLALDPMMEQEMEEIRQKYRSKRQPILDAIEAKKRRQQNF

“NORECAAX (NORE fused to the Ki-Ras4B membrane-association CAAX segment) (from UniProt Q5EBH1 1-413)” showed a fraction of annexin V-stained NIH3T3 cells of 50%.
